test: yeast display, Sf9 membrane polyspecificity reagent, FACS + sequencing; frameworks hold sequencing errors
Method in brief: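 Polyreactivity labels are assigned by the sorting gate from which each nanobody was recovered. The gates were low and high (top ~1%), set on anti-HA fluorescence for expression and streptavidin fluorescence for reagent binding. Before sorting, galactose-induced (36–48 hours) yeast display cells were stained for 1 hour at 4 °C with 10% biotinylated, detergent-solubilized Sf9 membrane reagent.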

Sequence | polyreactivity (PSR sort gate)
QVQLQERGGGLVQAGGSLRLSCAASGNIFEADIMGWYHQAQGKDRELVASITDGGSTNYADSVKGRFTINRDNAKNKVSRQMNSLKPEDTALYYCAAYGNARLKEHYYWGQGTQVTVSS | high polyreactivity
QVQLQERGGVLVQAGGSLRLSCAASGTISYAPHMGWYRQATGKERELVAGITIGGTTYYADSVKGRFTISRDNAIHTVYLHMNSLCRGDTAVYFFAAHSEQYTPFYYWGQGTQLTVSS | low polyreactivity
QVQLQESAGGLVQAGGSLRLRCSASGYISCDASMGWYRQAAGKERELAASITKGSSTNYADSVKGRFTIRDNAKNTVYLQMNSLKPEDTAVCYCAVTYPYWGDYTYWGQGTQVTVSS | low polyreactivity
QVQLQESGAGLVQAGGSLRLSCAASGSISAVGAMCWYRQAPGKEREFAASVNWATNTNYADSVKGRFTISRDNAKNTLYLQMNSLKPEDTAVYYCAVLPDWETRHDYWGHGTQVTVSS | low polyreactivity
QVQLQESGCGLVQAGGSLRLTCAASGSISYPRTMGWSRQAPGKEREFVAGIGVGGTTYYADSVIGRFTISRDNAKNTVYLQMNSLKPEDTAVYYCAVYSGDDYYHDYWGQGTQVTVSS | low polyreactivity
QVQLQESGCGLVQVGGSLRLSCAASGTTFIYGFLGWNRQAPGKERELVASINLGGFTNYADSVKGRFTISRDNAKNTVYLQMISLNPEDSAVFYCAAYVVTGQNYGYWGKGTQVTVSS | low polyreactivity
QVQLQESGDGLVQAGGSLRLSCAASGNIYDADIMGWYRQAPGKERELVTSITDGGSTNYADSVKGRFTISRDNAKNTVYLQMNSLKPEDTAVYYCAAIAYPDIPTSFDYNSDYSYWGQGTQVTVSS | low polyreactivity
QVQLQESGGDLEQAGGSLRLSCTASGTNSDVRVMGWYRQAPGKERELVATISYVTITYYADSVKGRLTISRDSEKHRVSADDEPETGRYRGVLLRYYWGLGTQVTVSS | low polyreactivity
QVQLQESGGGLAQAGGSLRLICAASGTLFPADSMGWYRQAPGKERELVAGITSGANTYYADSVNGRFTISHDNAKQTVYLQMDSLIPEDIAVYYCAAPGSSTYDLESWGQGTQVNVSS | high polyreactivity
QVQLQESGGGLAQAGGSLRLSCAASGNIFDADIMGWYRQAPGKERELVGSITDGGSTNYVDSVKGRFTISRDNAKNTVHLQMNSLKPEDTAVYYCAAIAYPDIPTYFDYDSDCFNWGHGTQVTVSS | high polyreactivity
QVQLQESGGGLAQAGGSQRLSCAASGTIFAADSMGWYRQAPGKERELVAGITSGANTYYADSVKGRYTISHDNAKKTVYLQMDSLIPEAIAVYYCAAPGSTTYDLEYWGQGTQVTVSS | high polyreactivity
QVQLQESGGGLEQAGGSLRLSCAASGYIFPTAIKGWYRQAPGKERKLVAAINPGSNTYYADSVKGRFTFSRDNANNSVYLQMNSLKPEDAAVYYCGVSIWLVGTLDYWGQGTQVTVSS | low polyreactivity
QVQLQESGGGLEQAGGSLRLSCAASGYITDIGTMGWYRQAPGKEREFVATIVVGSTTNYADSVKGRFTISRDNAKNTVYLQPESGRYRGVLLRGWLLAVGNFTYWGQGTQETVSS | low polyreactivity
QVQLQESGGGLEQAGGSLRMSCAANGNIFDADIVGRYRQAPGKKRELVASITDGGITNYADSVKGRFTISRDNAKYTVYLQMNSQNPEDTAVYYCAAIAYPDIPTYFDYDSDFFYWGQGTQVTVSS | high polyreactivity
QVQLQESGGGLEQAGGSLRMSCAANGNIFDSDIVGRYRQAPGKKRELVASITDGGITNYADSVKGRFTISRDNAKYTVYLQMNSQNPVDTAVYYCAAIAYPDIPTYFDYDSDFFYWGQGTQVTVSS | high polyreactivity
QVQLQESGGGLLQAGGSLRLSCAASGNFFDADIMGWYRQAPGKERELVASITDGGSTNYADRVKGRFTISRGNTKNTVYLLMNCLKPDDTSVYYCAAIAYPDIPTYFDYNSDYFYGGQGTQVTVSS | high polyreactivity

Sequence | polyreactivity (PSR sort gate)
QVQLQESGGGLLQAGGSLRLSCAASGNIFLSIFMGWYRQAPGKEREFVAGIGSGTNTNYADSVKGRFTISRDNAKNTVYLQMNSLKPEDTAGYYSAAGRFGLYYHGYWGLGTQVTVSS | high polyreactivity
QVQLQESGGGLMQAGGSLRLSCTASGTISDVRVMGWYRQAPGRERELVATISYVTITYYADSVKGRFTISRDSEKHRVSADDEPETGRYRGVLLRYYWGLGTQVTVSS | low polyreactivity
QVQLQESGGGLMQAGGSQRLSCAASGSISYYSDMCWYRQAPGKEREFVAGIGYGTTTNYADSVKGRFTTSRDNAKNTVYLQMISMKPEDTAVYYCAAYQGNGYEFYYWGQGTQVTVRS | low polyreactivity
QVQLQESGGGLMQAGGSQRLSCAESGSISYYSDMGWYRQAPGKEREFVAGIGYGTTTNYADSVKGRFTTSRDNAKNTVYLQMISMKPEDTAVYSCAAYQGNGYEFYYWGQGTQVTVRS | low polyreactivity
QVQLQESGGGLVEAGGTLRLSCAASGSYSADEDMGWYRQAQGKEREFVAGISVGGNTNYADSVKGRFTSSRENAKNSLFLQINSLKPEDTAVYYCAVLPDVYDALDYWAQGTQVTVSS | high polyreactivity
QVQLQESGGGLVKAGGSLRLSCAASGNISNHNDMGWYRQAPGKEREFVAGITAGGITNYADSVKGRFTISRDNAKNTVYLLMKRLKPEDTAVYYCAAYPDYAKSYGFWGQGTQATVSS | low polyreactivity
QVQLQESGGGLVKAGGSLRLSCAASGNISPRDAMGWYRQAPGEERDLVASNAYSAITYYADGVKGRYTISRDNAKNTVYLQMNSLKPEDTVVYYCAVYQFTYPVFPAYWGQGTQVTVSS | low polyreactivity
QVQLQESGGGLVLAGGSLRLSCAASGSISAQAYMGWDRQAPGKEREHVAGINYGDNTNYADSVKGRFTISRDNEHSVSADEQPETGRYRGVLLRGFLELFYYYIYWGQGTQVTVSS | high polyreactivity
QVQLQESGGGLVLAGGSLRLSCAESGYISWSFTMGWYRTAPGKERELVAGITYGGITYYADSVKGRFTISRDNAKNTVYLQMNSLKPEDTAVYYCNARKHGQGRNGYGSWGQGTQVTVSS | high polyreactivity
QVQLQESGGGLVQACGSLRLSCAASGTITVLYKMGWFRQAPGKEREFVASINYGTSTYYADSVKGRFTVSRDSAKNTVYLQMNSLKPEDTAVYYCAAAYRWQDVYRYWGQGTQVTVSS | low polyreactivity
QVQLQESGGGLVQAGASLRLSCAASGSIYDDTYMGSYRQAPGKERELVATIDSGSTTNYADSVKGRITISRDNEKNTVYLQMNSLKPEDSAVYYCAAADSHIDYFDYWGQGTQVTVSS | low polyreactivity
QVQLQESGGGLVQAGASQRLSCAASGYIFYFQYMGWYRQAPGKEREFVAAISDGANTNYADSVKGRFTISRDNAKNTEYLQMNSLKPEDTAVYYCAVYADENYYYIYWGQGTQVTVSS | low polyreactivity
QVQLQESGGGLVQAGDSLRLSCAASGTISGRDSMGWYRQAPGKEREFVASIDFGTNTYYADSVKGRFTISRDNAKNTVYLQMNRLTAVYYCAAPDSQYSYWGQGTQVTESS | high polyreactivity
QVQLQESGGGLVQAGGDLRLSCAASGNIFRDYIMGWNRQAPGKEREFVAGIDRGANTNYADSVKGRFTISRDNAKNTVYLQMNSLKPEDTAVYYCAVHTDIVPDFIYWGQGTQVTVSS | low polyreactivity
QVQLQESGGGLVQAGGDLRLSCAASGNIFRDYIMGWYREAPGKEREFVAGIDRGANPNYADSVKGRFTISRDNAKNTVYLQMNSLKPEDTAVYYCAVHTAIVADFIYWGQGTQVTVSS | low polyreactivity
QVQLQESGGGLVQAGGILRLSCASCGNIIPSAVMVWYRQALGKEREFVATINSGSNTYYADSVKGRFTISRDNAKITVYQQMNILKLEDTAVYYCAAYFKLPAWHTYWGQGTQVTVSS | low polyreactivity

— the nanobody polyreactivity screen of Harvey et al. (2022)
